According to publication PMC6150732:

Biological target: encapsulin from Brevibacterium linens (Brevibacterium linens)
Assay: cryo-EM structure

Substance | stoichiometry N (subunits per particle) | stoichiometry N (DyP hexamer per encapsulin particle)
encapsulin from Brevibacterium linens (natural protein) | 60 | –
dye-decolorizing peroxidase (DyP) from Brevibacterium linens (enzyme) | – | 1
